Assay results taken from publication doi:10.1101/2023.01.06.522972 (bioRxiv, 2023).

B1: poly-L-proline decamer peptide (peptide)
peptide: PPPPPPPPPP
notes: also called poly-L-proline peptide; poly-proline decamer
B2: Leishmania major profilin, wild type (natural protein)
chain: SWQAYVDDSLIGSGNMHSAAIIGAADGSYWAYGGSYVPQPEEVQHIQKCLSDFSFVQSSGVNIYGVKFFGLQCGTDGDCKYIFFKKGAAGGCIYTTKQAFIVAVYGNPGDTSSLQQDLEKNTAHAVTVNPADCNTTVKRIADYLIKLGY
notes: also called LmProfilin; LmProf-WT

How the values were obtained:
Conditions in all cases: both partners purified
[1] = target: B2; test: other fluorescence titration
Leishmania major actin [2] = target: T1, Leishmania major actin (Leishmania major, UniProt P45520 2-376); test: crystal structure
T1 construct: also called LmActin; Leishmania actin

Leishmania major actin [3] = target: T1, Leishmania major actin; test: ITC

T1 sequence (P45520 2-376): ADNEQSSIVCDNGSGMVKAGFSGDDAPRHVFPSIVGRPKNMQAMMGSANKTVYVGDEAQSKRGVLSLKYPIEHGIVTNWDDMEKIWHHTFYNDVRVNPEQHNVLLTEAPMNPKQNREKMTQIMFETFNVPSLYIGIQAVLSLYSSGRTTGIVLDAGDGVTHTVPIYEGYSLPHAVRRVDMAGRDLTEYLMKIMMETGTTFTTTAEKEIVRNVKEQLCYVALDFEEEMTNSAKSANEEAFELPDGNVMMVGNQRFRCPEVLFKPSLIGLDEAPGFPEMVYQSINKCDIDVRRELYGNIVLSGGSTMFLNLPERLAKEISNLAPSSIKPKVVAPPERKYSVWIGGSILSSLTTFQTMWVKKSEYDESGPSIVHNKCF

| Binder | Kd [1] [µM] | stoichiometry N (Leishmania major actin [2]) | Kd (Leishmania major actin [3]) [µM] |
| --- | --- | --- | --- |
| B1 | 242 ± 38.4 | – | – |
| B2 | – | 1 | ~0.08 |
